# Values quoted from earlier work, collected in US9504757B2, “Site-specific GLP-2 conjugate using an immunoglobulin fragment” (HANMI SCIENCE CO., LTD., priority 2011, dated 2016).
# Conditions: inactivation by DPP IV; Bolette H. et al. 2000
sequence,measurement,value
HADGSFSDEMNTILDNLAARDFINWLIQTKITD [GLP-2],in vivo half-life,≤ 7 min
